One assay deals with T1, DENV3 NS1 (Dengue virus 3, UniProt Q6YMS4 774-1125).
T1 sequence: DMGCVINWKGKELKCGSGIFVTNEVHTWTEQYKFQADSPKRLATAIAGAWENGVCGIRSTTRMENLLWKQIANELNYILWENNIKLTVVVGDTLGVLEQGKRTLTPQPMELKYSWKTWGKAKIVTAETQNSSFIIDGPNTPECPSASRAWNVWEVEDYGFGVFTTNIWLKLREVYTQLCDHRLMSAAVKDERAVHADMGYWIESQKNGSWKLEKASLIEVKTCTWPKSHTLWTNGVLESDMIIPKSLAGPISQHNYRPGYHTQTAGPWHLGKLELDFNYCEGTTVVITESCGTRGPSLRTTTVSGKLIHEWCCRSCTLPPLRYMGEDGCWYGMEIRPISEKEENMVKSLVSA
Nature of the assay: ELISA, 2B7 titrated on DENV3 NS1, OD450nm.

For a further assay, the target named is T2, DENV4 NS1 (Dengue virus 4, UniProt P09866 775-1126).
T2 sequence: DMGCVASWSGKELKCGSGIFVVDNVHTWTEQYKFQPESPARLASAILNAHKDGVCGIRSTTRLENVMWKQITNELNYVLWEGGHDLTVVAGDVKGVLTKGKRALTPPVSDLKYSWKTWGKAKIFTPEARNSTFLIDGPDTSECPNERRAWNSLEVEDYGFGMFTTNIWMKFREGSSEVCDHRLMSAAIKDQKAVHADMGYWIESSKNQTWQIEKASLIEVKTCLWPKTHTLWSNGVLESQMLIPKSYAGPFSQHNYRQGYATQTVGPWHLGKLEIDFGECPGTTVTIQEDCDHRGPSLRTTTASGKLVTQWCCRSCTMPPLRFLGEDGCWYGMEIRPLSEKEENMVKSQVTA
Nature of the assay: ELISA, 2B7 titrated on DENV4 NS1, OD450nm.

Assay [1] deals with T3, recombinant NS1 wing domain (residues 38-151) (Dengue virus 2, UniProt P07564 813-926).
T3 sequence: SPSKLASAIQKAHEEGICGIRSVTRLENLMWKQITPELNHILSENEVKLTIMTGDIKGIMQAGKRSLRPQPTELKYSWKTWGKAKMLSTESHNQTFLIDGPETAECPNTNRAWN
Nature of the assay: direct ELISA on plates coated with recombinant NS1 domains, OD 405 nm.

For assay [2], the target named is T4, JEV NS1 (Japanese encephalitis virus NS1) (Japanese encephalitis virus, UniProt P0DOH7 795-1146).
T4 sequence: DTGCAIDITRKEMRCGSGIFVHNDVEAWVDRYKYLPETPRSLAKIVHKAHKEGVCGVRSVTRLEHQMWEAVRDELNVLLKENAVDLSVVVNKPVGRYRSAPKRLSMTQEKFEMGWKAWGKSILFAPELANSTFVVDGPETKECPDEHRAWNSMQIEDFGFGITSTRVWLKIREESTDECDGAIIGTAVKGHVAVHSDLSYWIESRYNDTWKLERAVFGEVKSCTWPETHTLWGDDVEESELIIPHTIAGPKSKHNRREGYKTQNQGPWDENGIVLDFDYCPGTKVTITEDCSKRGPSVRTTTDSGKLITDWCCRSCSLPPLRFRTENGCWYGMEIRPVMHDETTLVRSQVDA
In words: ELISA, 2B7 titrated on JEV NS1, OD450nm.

Assay [3] deals with T5, WSLV NS1 (Wesselsbron virus NS1) (Wesselsbron virus, UniProt C5H431 771-1123).
T5 sequence: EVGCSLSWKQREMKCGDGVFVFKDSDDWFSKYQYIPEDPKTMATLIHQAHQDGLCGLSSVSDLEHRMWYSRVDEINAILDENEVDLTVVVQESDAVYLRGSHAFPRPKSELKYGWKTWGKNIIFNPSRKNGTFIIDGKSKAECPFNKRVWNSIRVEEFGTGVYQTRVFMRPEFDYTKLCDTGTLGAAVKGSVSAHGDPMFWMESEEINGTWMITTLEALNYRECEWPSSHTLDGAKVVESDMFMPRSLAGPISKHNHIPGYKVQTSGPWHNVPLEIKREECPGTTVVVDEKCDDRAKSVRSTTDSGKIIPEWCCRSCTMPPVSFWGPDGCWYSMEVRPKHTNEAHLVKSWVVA
In words: ELISA, 2B7 titrated on WSLV NS1, OD450nm.

For assay [4], the target named is T6, USUV NS1 (Usutu virus NS1) (Usutu virus, UniProt Q5WPU5 794-1145).
T6 chain: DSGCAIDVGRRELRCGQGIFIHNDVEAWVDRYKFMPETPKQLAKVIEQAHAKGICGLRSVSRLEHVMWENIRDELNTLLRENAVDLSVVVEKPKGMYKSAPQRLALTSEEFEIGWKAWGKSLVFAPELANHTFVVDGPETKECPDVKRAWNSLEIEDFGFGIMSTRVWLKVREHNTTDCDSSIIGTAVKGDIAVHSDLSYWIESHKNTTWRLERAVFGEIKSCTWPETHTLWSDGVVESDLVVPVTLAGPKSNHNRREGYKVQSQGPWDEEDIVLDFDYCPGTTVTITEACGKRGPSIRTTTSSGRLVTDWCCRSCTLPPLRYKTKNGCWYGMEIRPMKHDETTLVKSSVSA
In words: ELISA, 2B7 titrated on USUV NS1, OD450nm.

The target in assay [5] is T7, SLEV NS1 (Saint Louis encephalitis virus NS1) (Saint Louis encephalitis virus, UniProt P09732 790-1141).
T7 sequence: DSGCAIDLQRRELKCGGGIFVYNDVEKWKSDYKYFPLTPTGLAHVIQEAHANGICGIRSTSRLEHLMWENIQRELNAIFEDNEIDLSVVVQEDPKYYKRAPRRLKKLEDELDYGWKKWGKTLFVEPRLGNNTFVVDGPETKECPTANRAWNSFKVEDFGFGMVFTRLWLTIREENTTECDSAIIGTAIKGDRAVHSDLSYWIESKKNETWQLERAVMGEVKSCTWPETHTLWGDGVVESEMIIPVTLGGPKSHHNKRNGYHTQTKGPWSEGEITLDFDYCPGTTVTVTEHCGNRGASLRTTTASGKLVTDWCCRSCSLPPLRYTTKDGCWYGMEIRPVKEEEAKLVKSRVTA
Nature of the assay: ELISA, 2B7 titrated on SLEV NS1, OD450nm.

The target in assay [6] is T8, DENV1 NS1 (Dengue virus 1, UniProt P17763 776-1127).
T8 construct: also called dengue virus serotype 1 NS1
T8 chain: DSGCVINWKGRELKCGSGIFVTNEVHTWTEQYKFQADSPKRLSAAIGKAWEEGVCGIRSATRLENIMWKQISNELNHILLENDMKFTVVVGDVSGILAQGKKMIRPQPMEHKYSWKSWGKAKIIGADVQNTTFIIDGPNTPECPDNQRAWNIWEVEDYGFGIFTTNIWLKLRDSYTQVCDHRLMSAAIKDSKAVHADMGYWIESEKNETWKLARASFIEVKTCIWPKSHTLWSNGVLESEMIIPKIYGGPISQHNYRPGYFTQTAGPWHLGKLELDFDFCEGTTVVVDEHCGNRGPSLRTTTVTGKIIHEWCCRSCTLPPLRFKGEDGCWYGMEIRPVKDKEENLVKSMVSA
Nature of the assay: ELISA, 2B7 titrated on DENV1 NS1, OD450nm.

In assay [7] the target is T8, DENV1 NS1. In words: crystal structure 3.3 Å.
Assay [8] has as its target T3, recombinant NS1 wing domain (residues …). In words: BLI, domains on anti-His tips.

B1: anti-DENV NS1 IgG2b mouse monoclonal antibody (mAb) 2B7 (antibody, V domains shown)
VH: EVQLQQSGPELVKPGASVKMSCKASGCTLTNCFMHWMKQKPGQDLEWIGYINPYNDMTKYSENFKGKATLTSDKSSSTAFMELSSLTSEDSAVYYCARGYLLRTGCFDYWGQGTTLTVSS
VL: NIVLTQSPASLAVSLGQRATISCRASESVDSYGYSFMHWYQQKPGQPPKVLIYLASNLESGVPARFSGSGSRTDFTLTIDPVEADDAATYYCQQNNENPLTFGAGTKLELKR
Consider B1, for which the binding result with DENV3 NS1 is reported as “binds”; in the assay with DENV4 NS1, “binds”; in assay [1], “no binding”; in assay [2], “binds”; in assay [3] it was “binds”; in assay [4] it was “binds”. Further, the binding result (in [5]; in the assay with DENV1 NS1 [6]) was “binds” in each case.

B2: 2B7 Fab (Fab, V domains shown)
VH: EVQLQQSGPELVKPGASVKMSCKASGCTLTNCFMHWMKQKPGQDLEWIGYINPYNDMTKYSENFKGKATLTSDKSSSTAFMELSSLTSEDSAVYYCARGYLLRTGCFDYWGQGTTLTVSS
VL: NIVLTQSPASLAVSLGQRATISCRASESVDSYGYSFMHWYQQKPGQPPKVLIYLASNLESGVPARFSGSGSRTDFTLTIDPVEADDAATYYCQQNNENPLTFGAGTKLELK
On to B2, for which the figures for the binding result (in the assay with DENV1 NS1 [7]; in [8]) were “binds” and “no binding”, respectively.
